Values of other authors, collected in paper PMC8232796.
Read-outs that look alike come from different tables or passages of the source. Values belong to the substance of their own block, whether it stands above or below them.

Tests used:
Ubiquitin (Homo sapiens) [1] = target: Ubiquitin (Homo sapiens) (UniProt P0CG48)
[2] = target: HIV-1 Gag p6 peptide p6 (Human immunodeficiency virus 1) (UniProt O93182)
Ubiquitin (Homo sapiens) [3] = target: Ubiquitin (Homo sapiens) (UniProt P0CG48); remark: listed apart in the source
Ubiquitin (Homo sapiens) [4] = target: Ubiquitin (Homo sapiens) (UniProt P0CG48); remark: listed apart in the source

Sequence of Tsg101 UEV UEV (Q99816 1-148): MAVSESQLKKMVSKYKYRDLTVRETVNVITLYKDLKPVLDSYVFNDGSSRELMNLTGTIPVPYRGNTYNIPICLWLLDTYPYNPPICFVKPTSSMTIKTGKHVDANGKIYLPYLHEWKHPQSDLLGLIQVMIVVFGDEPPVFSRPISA
Sequence of UbcH5 (P51668 whole entry): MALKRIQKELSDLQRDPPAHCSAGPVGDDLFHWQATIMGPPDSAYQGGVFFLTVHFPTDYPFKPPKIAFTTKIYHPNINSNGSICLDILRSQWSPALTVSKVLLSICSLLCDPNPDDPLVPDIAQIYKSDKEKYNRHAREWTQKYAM
Sequence of hMms2 UEV (Q15819 2-145): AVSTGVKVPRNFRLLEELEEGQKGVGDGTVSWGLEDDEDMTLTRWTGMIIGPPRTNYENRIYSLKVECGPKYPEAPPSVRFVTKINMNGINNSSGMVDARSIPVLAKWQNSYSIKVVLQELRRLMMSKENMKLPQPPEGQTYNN

Substance: Tsg101 UEV UEV (from UniProt Q99816)
Kd (Ubiquitin (Homo sapiens) [1]): 500 µM | Kd [2]: 27 µM

Kd (Ubiquitin (Homo sapiens) [3]): 300 µM
Substance: UbcH5 (from UniProt P51668)

Kd (Ubiquitin (Homo sapiens) [4]): 100 µM
Substance: hMms2 UEV (from UniProt Q15819)
